Here are results for 2 molecules from patent US20210155670A1 (University of California, published 2021).

Assay [1] addresses T1, Whole Z1 construct (B2m, HLA-A*02:01, FOS), leucine-zippered single-chain MHC-I (human).
T1 construct: also called single-chain-Fos; single-chain MHC-I-B2M protein
The assay can be described thus: co-expression in CHO cells, purification by the Strep tag on TAPBPR, SDS PAGE.

For assay [2], the target named is T2, single-chain MHC-I (beta2 microglobulin-(GGGS)4-HLA-A*02:01 ectodomain-AviTag), TEV-digested (unzippered), … (human).
T2 construct: also called peptide receptive MHC-I complex; unzippered MHC-I
The assay can be described thus: size exclusion chromatography after TEV cleavage.

In assay [3] the target is single-chain HLA-A*24:02 (beta2 microglobulin-linker-HLA-A*24:02 ectodomain-AviTag), TEV-digested, CHO-derived (human). The assay can be described thus: co-expression, Strep tag purification, TEV digestion, size exclusion chromatography. (In gel filtration, larger molecules generally elute earlier.)

B1: Whole Z2 construct (TAPBPR, JUN), leucine-zippered TAPBPR with Strep tags (other)
chain: KPHPAEGQWRAVDVVLDCFLVKDGAHRGALASSEDRARASLVLKQVPVLDDGSLEDFTDFQGGTLAQDDPPIIFEASVDLVQIPQAEALLHADASGKEVTCEISRYFLQMTETTVKTAAWFMANVQVSGGGPSISLVMKTPRVAKNEVLWHPTLNLPLSPQGTVRTAVEFQVMTQTQSLSFLLGSSASLDCGFSMAPGLDLISVEWRLQHKGRGQLVYSWTAGQGQAVRKGATLEPAQLGMARDASLTLPGLTIQDEGTYICQITTSLYRAQQIIQLNIQASPKVRLSLANEALLPTLICDIAGYYPLDVVVTWTREELGGSPAQVSGASFSSLRQSVAGTYSISSSLTAEGSAGATYTCQVTHISLEEPLGASTQVVPPERRLEGAGGSGGGGSGGGASGGGGSENLYFQSSGGGGSKVDGGGGGRIARLEEKVKTLKAQNSELASTANMLREQVAQLKQVMNWSHPQFEKGGGSGGGSGGSAWSHPQFEKAA
As to B1, the binding result in assay [1] is on record as “binds”.

B2: TAPBPR (luminal domain, C94A), TEV-digested (unzippered) (other)
chain: KPHPAEGQWRAVDVVLDCFLVKDGAHRGALASSEDRARASLVLKQVPVLDDGSLEDFTDFQGGTLAQDDPPIIFEASVDLVQIPQAEALLHADASGKEVTCEISRYFLQMTETTVKTAAWFMANVQVSGGGPSISLVMKTPRVAKNEVLWHPTLNLPLSPQGTVRTAVEFQVMTQTQSLSFLLGSSASLDCGFSMAPGLDLISVEWRLQHKGRGQLVYSWTAGQGQAVRKGATLEPAQLGMARDASLTLPGLTIQDEGTYICQITTSLYRAQQIIQLNIQASPKVRLSLANEALLPTLICDIAGYYPLDVVVTWTREELGGSPAQVSGASFSSLRQSVAGTYSISSSLTAEGSAGATYTCQVTHISLEEPLGASTQVVPPERRLEGAGGSGGGGSGGGASGGGGSENLYFQS
notes: also called un-zippered (TEV cleaved) TAPBPR; chaperone TAPBPR
B2: the binding result in assay [2] and in assay [3] was “binds” each time.
